Laboratory results reported in patent publication US20070077578A1, “Diagnosis of (a risk of ) disease and monitoring of therapy” (PrimaGen Holding B.V., priority 2004, published 2007).

Test system: AC133
Test: AC133 expression per 10,000 cells (quantified by U1A) in patients treated with GCSF
Type: in vivo, human
Conditions: two patients treated with GCSF, compared to volunteers and all the other patients
Procedure: Isolation of nucleic acids from PBMC and NASBA amplification were performed as described in Example 2 with one modification: U1A was used instead of Beta Actin.
Two samples of patients who have been subjected to treatment with GCSF were tested. GCSF mobilizes stem cells from the bone marrow, so it is expected to find more AC133-expressing cells in the blood after a treatment with GCSF. It is clear from FIG. 16 that the AC133 expression in these two patients is much higher compared to volunteers and all the other patients.

B1: GCSF: mobilizes stem cells from the bone marrow (protein, UniProt P09919 31-207, looked up)
Granulocyte …: TPLGPASSLPQSFLLKCLEQVRKIQGDGAALQEKLVSECATYKLCHPEELVLLGHSLGIPWAPLSSCPSQALQLAGCLSQLHSGLFLYQGLLQALEGISPELGPTLDTLQLDVADFATTIWQQMEELGMAPALQPTQGAMPAFASAFQRRAGGVLVASHLQSFLEVSYRVLRHLAQP
AC133 expression per 10,000 cells: much higher
